In PMC1950529:
Where two headings read alike, the source gives them in different places.

How the values were obtained:
[1] = biological target: Thermus aquaticus DnaB helicase (Thermus aquaticus); assay: SEC
[2] = biological target: Thermus aquaticus DnaB helicase (Thermus aquaticus); assay: SEC; remark: listed apart in the source

- stoichiometry N [1]: 6
- stoichiometry N [2]: 6
Substance: Thermus aquaticus DnaB helicase (enzyme)
